We go through three molecules from US20130064817A1.

This assay has as its target human IL-23R (human) (UniProt Q5VWK5). Kind of assay: BIAcore, antibody immobilized on CM5 chip.

Chain of human IL-23R (human) (Q5VWK5 24-353 L310P limits assumed): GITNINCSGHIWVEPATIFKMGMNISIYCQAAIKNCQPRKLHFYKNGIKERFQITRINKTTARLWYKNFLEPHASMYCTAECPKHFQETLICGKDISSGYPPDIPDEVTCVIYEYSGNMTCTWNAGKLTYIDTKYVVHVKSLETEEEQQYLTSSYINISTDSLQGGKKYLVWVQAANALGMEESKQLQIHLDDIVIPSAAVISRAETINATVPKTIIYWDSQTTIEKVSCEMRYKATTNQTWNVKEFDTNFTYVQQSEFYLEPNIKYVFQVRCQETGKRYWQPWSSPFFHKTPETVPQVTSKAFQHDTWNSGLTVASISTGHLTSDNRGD

B1: humanized 20D7 antibody with hu20D7-a heavy chain variable domain (antibody, part only; not given: unnamed light chain, V domains shown, part only)
VH: QVQLVQSGAEVKKPGASVKVSCKASGYTFTNYAMNWVRQAPGQGLEWMGWINTYTGEPTYNEKFKGRVTMTTDTSTSTAYMELRSLRSDDTAVYYCARGGGYDEDYFDYWGQGTLVTVSS
For the molecule B1, the Kd came to 4300 pM and the fold reduction of binding affinity against mouse 20D7 worked out at 50 fold.

B2: humanized 20D7 antibody with hu20D7-c heavy chain variable domain (T72L, M70F) (antibody, part only; not given: unnamed light chain, V domains shown, part only)
VH: QVQLVQSGAEVKKPGASVKVSCKASGYTFTNYAMNWVRQAPGQGLEWMGWINTYTGEPTYSDDFKGRVTFTLDTSTSTAYMELRSLRSDDTAVYYCARGGGYDEDYFDYWGQGTLVTVSS
Take B2: the Kd came out at 230 pM and the fold improvement of binding affinity against the simple humanization (hu20D7-a) amounted to 20 fold.

B3: humanized 20D7 antibody with hu20D7-b heavy chain variable domain (T72L) (antibody, part only; not given: unnamed light chain, V domains shown, part only)
VH: QVQLVQSGAEVKKPGASVKVSCKASGYTFTNYAMNWVRQAPGQGLEWMGWINTYTGEPTYSDDFKGRVTMTLDTSTSTAYMELRSLRSDDTAVYYCARGGGYDEDYFDYWGQGTLVTVSS
Molecule B3 yielded a Kd of 360 pM.

As a reminder, the Kd is the concentration at which binding is half-saturated. The low end stands for higher affinity, the high end for lower affinity.
